Results as given in US20120148575A1.

Columns and labels:
Experiment in all cases: SPR
[1] = molecular target: huFcgRIIb
[2] = molecular target: huFcRI
[3] = molecular target: muFcgRIIb
[4] = molecular target: muFcgRIII
[5] = molecular target: huFcgRIIIA - 158V
[6] = molecular target: muFcgRIV
[7] = molecular target: muFcgRI

muFcgRIV, sequence (A0A0B4J1G0 21-203): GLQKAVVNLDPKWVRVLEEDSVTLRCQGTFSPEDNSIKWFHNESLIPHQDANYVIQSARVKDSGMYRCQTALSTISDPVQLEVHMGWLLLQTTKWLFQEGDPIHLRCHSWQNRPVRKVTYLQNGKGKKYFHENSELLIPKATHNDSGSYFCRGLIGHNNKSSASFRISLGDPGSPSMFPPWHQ

| Substance | Kd [1] [nM] | Kd [2] [nM] | Kd [3] [nM] | Kd [4] [nM] | Kd [5] [nM] | Kd [6] [nM] | Kd [7] [nM] |
| --- | --- | --- | --- | --- | --- | --- | --- |
| Control | 14500 | 19 | 1470 | 6360 | 574 | – | – |
| Hu IgG1 | – | – | 1240 | 3660 | – | 253 | – |
| Hu IgG1 afuc | – | – | 1260 | 3960 | – | 43 | 397 |
